Source: paper PMC11098746 (2024)

B1: ADP381 (protein)
chain: SQEKNKNANSSPVASTTPSASATTNPASATTLDQSKAWNRYRLPNTLKPDSYRVTLRPYLTPNDRGLYVFKGSSTVRFTCKEATDVIIIHSKKLNYTLSQGHRVVLRGVGGSQPPDIDKTELVEPTEYLVVHLKGSLVKDSQYEMDSEFEGELADDLAGFYRSEYMEGNVRKVVATTQMQAADARKSFPCFDEPAMKAEFNITLIHPKDLTALSNMLPKGPSTPLPEDPNWNVTEFHTTPKMSTYLLAFIVSEFDYVEKQASNGVLIRIWARPSAIAAGHGDYALNVTGPILNFFAGHYDTPYPLPKSDQIGLPDFNAGAMENWGLVTYRENSLLFDPLSSSSSNKERVVTVIAHELAHQWFGNLVTIEWWNDLWLNEGFASYVEYLGADYAEPTWNLKDLMVLNDVYRVMAVDALASSHPLSTPASEINTPAQISELFDAISYSKGASVLRMLSSFLSEDVFKQGLASYLHTFAYQNTIYLNLWDHLQEAVNNRSIQLPTTVRDIMNRWTLQMGFPVITVDTSTGTLSQEHFLLDPDSNVTRPSEFNYVWIVPITSIRDGRQQQDYWLIDVRAQNDLFSTSGNEWVLLNLNVTGYYRVNYDEENWRKIQTQLQRDHSAIPVINRAQIINDAFNLASAHKVPVTLALNNTLFLIEERQYMPWEAALSSLSYFKLMFDRSEVYGPMKNYLKKQVTPLFIHFRNNTNNWREIPENLMDQYSEVNAISTACSNGVPECEEMVSGLFKQWMENPNNNPIHPNLRSTVYCNAIAQGGEEEWDFAWEQFRNATLVNEADKLRAALACSKELWILNRYLSYTLNPDLIRKQDATSTIISITNNVIGQGLVWDFVQSNWKKLFNDYGGGSFSFSNLIQAVTRRFSTEYELQQLEQFKKDNEETGFGSGTRALEQALEKTKANIKWVKENKEVVLQWFTENSK
modifications: bait human Fc-tagged dimer
B2: ADP140 (protein)
chain: MELRVLLCWASLAAALEETLLNTKLETADLKWVTFPQVDGQWEELSGLDEEQHSVRTYEVCDVQRAPGQAHWLRTGWVPRRGAVHVYATLRFTMLECLSLPRAGRSCKETFTVFYYESDADTATALTPAWMENPYIKVDTVAAEHLTRKRPGAEATGKVNVKTLRLGPLSKAGFYLAFQDQGACMALLSLHLFYKKCAQLTVNLTRFPETVPRELVVPVAGSCVVDAVPAPGPSPSLYCREDGQWAEQPVTGCSCAPGFEAAEGNTKCRACAQGTFKPLSGEGSCQPCPANSHSNTIGSAVCQCRVGYFRARTDPRGAPCTTPPSAPRSVVSRLNGSSLHLEWSAPLESGGREDLTYALRCRECRPGGSCAPCGGDLTFDPGPRDLVEPWVVVRGLRPDFTYTFEVTALNGVSSLATGPVPFEPVNVTTDREVPPAVSDIRVTRSSPSSLSLAWAVPRAPSGAVLDYEVKYHEKGAEGPSSVRFLKTSENRAELRGLKRGASYLVQVRARSEAGYGPFGQEHHSQTQLDESEGWREQLAL
modifications: bait human Fc-tagged dimer
B3: ADP355 (protein)
chain: MALLLLHPAFQSCLLLTLLGLWRTTPEAHASSLGAPAISAASFLQDLIHRYGEGDSLTLQQLKALLNHLDVGVGRGNVTQHVQGHRNLSTCFSSGDLFTAHNFSEQSRIGSSELQEFCPTILQQLDSRACTSENQENEENEQTEEGRPSAVEVWGYG
modifications: bait human Fc-tagged dimer
B4: ADP278 (protein)
chain: IQAKLIFLNFVRVPYFIDLKKPQDQGLNHTCNYYLQPEEDVTIGVWHTVPAVWWKNAQGKDQMWYEDALASSHPIILYLHGNAGTRGGDHRVELYKVLSSLGYHVVTFDYRGWGDSVGTPSERGMTYDALHVFDWIKARSGDNPVYIWGHSLGTGVATNLVRRLCERETPPDALILESPFTNIREEAKSHPFSVIYRYFPGFDWFFLDPITSSGIKFANDENVKHISCPLLILHAEDDPVVPFQLGRKLYSIAAPARSFRDFKVQFVPFHSDLGYRHKYIYKSPELPRILREFLGKSEPEHQH
modifications: bait human Fc-tagged dimer
B5: ADP349 (protein)
chain: MAAAGPRRSVRGAVCLHLLLTLVIFSRAGEACKKVILNVPSKLEADKIIGRVNLEECFRSADLIRSSDPDFRVLNDGSVYTARAVALSDKKRSFTIWLSDKRKQTQKEVTVLLEHQKKVSKTRHTRETVLRRAKRRWAPIPCSMQENSLGPFPLFLQQVESDAAQNYTVFYSISGRGVDKEPLNLFYIERDTGNLFCTRPVDREEYDVFDLIAYASTADGYSADLPLPLPIRVEDENDNHPVFTEAIYNFEVLESSRPGTTVGVVCATDRDEPDTMHTRLKYSILQQTPRSPGLFSVHPSTGVITTVSHYLDREVVDKYSLIMKVQDMDGQFFGLIGTSTCIITVTDSNDNAPTFRQNAYEAFVEENAFNVEILRIPIEDKDLINTANWRVNFTILKGNENGHFKISTDKETNEGVLSVVKPLNYEENRQVNLEIGVNNEAPFARDIPRVTALNRALVTVHVRDLDEGPECTPAAQYVRIKENLAVGSKINGYKAYDPENRNGNGLRYKKLHDPKGWITIDEISGSIITSKILDREVETPKNELYNITVLAIDKDDRSCTGTLAVNIEDVNDNPPEILQEYVVICKPKMGYTDILAVDPDEPVHGAPFYFSLPNTSPEISRLWSLTKVNDTAARLSYQKNAGFQEYTIPITVKDRAGQAATKLLRVNLCECTHPTQCRATSRSTGVILG
modifications: bait human Fc-tagged dimer
B6: ADP371 (protein)
chain: MRRAWILLTLGLVACVSAESRAELTSDKDMYLDNSSIEEASGVYPIDDDDYASASGSGADEDVESPELTTSRPLPKILLTSAAPKVETTTLNIQNKIPAQTKSPEETDKEKVHLSDSERKMDPAEEDTNVYTEKHSDSLFKRTE
modifications: bait human Fc-tagged dimer
B7: ADP356 (protein)
chain: MAPLPGALGVAAAAALWLLLLLLPRTRADEHEHTYQDKEEVVLWMNTVGPYHNRQETYKYFSLPFCVGSKKSISHYHETLGEALQGVELEFSGLDIKFKDDVMPATYCEIDLDKEKRDAFVYAIKNHYWYQMYIDDLPIWGIVGEADENGEDYYLWTYKKLEIGFNGNRIVDVNLTSEGKVKLVPNTKIQMSYSVKWKKSDVKFEDRFDKYLDPS
modifications: bait human Fc-tagged dimer
B8: ADP266 (protein)
chain: EEFRPEMLQGKKVIVTGASKGIGREMAYHLAKMGAHVVVTARSKETLQKVVSHCLELGAASAHYIAGTMEDMTFAEQFVAQAGKLMGGLDMLILNHITNTSLNLFHDDIHHVRKSMEVNFLSYVVLTVAALPMLKQSNGSIVVVSSLAGKVAYPMVAAYSASKFALDGFFSSIRKEYSVSRVNVSITLCVLGLIDTETAMKAVSGIVHMQAAPKEECALEIIKGGALRQEEVYYDSSLWTTLLIRNPCRKILEFLYSTSYNMDRFINK
modifications: bait human Fc-tagged dimer
B9: ADP360 (protein)
chain: MGAARGSPARPRRLPLLSVLLLPLLGGTQTAIVFIKQPSSQDALQGRRALLRCEVEAPGPVHVYWLLDGAPVQDTERRFAQGSSLSFAAVDRLQDSGTFQCVARDDVTGEEARSANASFNIKWIEAGPVVLKHPASEAEIQPQTQVTLRCHIDGHPRPTYQWFRDGTPLSDGQSNHTVSSKERNLTLRPAGPEHSGLYSCCAHSAFGQACSSQNFTLSIADESFARVVLAPQDVVVARYEEAMFHCQFSAQPPPSLQWLFEDETPITNRSRPPHLRRATVFANGSLLLTQVRPRNAGIYRCIGQGQRGPPIILEATLHLAEIEDMPLFEPRVFTAGSEERVTCLPPKGLPEPSVWWEHAGVRLPTHGRVYQKGHELVLANIAESDAGVYTCHAANLAGQRRQDVNITVATVPSWLKKPQDSQLEEGKPGYLDCLTQATPKPTVVWYRNQMLISEDSRFEVFKNGTLRINSVEVYDGTWYRCMSSTPAGSIEAQARVQVLEKLKFTPPPQPQQCMEFDKEATVPCSATGREKPTIKWERADGSSLPEWVTDNAGTLHFARVTRDDAGNYTCIASNGPQGQIRAHVQLTVAVFITFKVEPERTTVYQGHTALLQCEAQGDPKPLIQWKGKDRILDPTKLGPRMHIFQNGSLVIHDVAPEDSGRYTCIAGNSCNIKHTEAPLYVVDKPVPEESEGPGSPPP
modifications: bait human Fc-tagged dimer
B10: ADP350 (protein)
chain: MAAAGRLPSSWALFSPLLAGLALLGVGPVPARALHNVTAELFGAEAWGTLAAFGDLNSDKQTDLFVLRERNDLIVFLADQNAPYFKPKVKVSFKNHSALITSVVPGDYDGDSQMDVLLTYLPKNYAKSELGAVIFWGQNQTLDPNNMTILNRTFQDEPLIMDFNGDLIPDIFGITNESNQPQILLGGNLSWHPALTTTSKMRIPHSHAFIDLTEDFTADLFLTTLNATTSTFQFEIWENLDGNFSVSTILEKPQNMMVVGQSAFADFDGDGHMDHLLPGCEDKNCQKSTIYLVRSGMKQWVPVLQDFSNKGTLWGFVPFVDEQQPTEIPIPITLHIGDYNMDGYPDALVILKNTSGSNQQAFLLENVPCNNASCEEARRMFKVYWELTDLNQIKDAMVATFFDIYEDGILDIVVLSKGYTKNDFAIHTLKNNFEADAYFVKVIVLSGLCSNDCPRKITPFGVNQPGPYIMYTTVDANGYLKNGSAGQLSQSAHLALQLPYNVLGLGRSANFLDHLYVGIPRPSGEKSIRKQEWTAIIPNSQLIVIPYPHNVPRSWSAKLYLTPS
modifications: bait human Fc-tagged dimer
B11: ADP129 (protein)
chain: MFPFYSCWRTGLLLLLLAVAVRESWQTEEKTCDLVGEKGKESEKELALVKRLKPLFNKSFESTVGQGSDTYIYIFRVCREAGNHTSGAGLVQINKSNGKETVVGRLNETHIFNGSNWIMLIYKGGDEYDNHCGKEQRRAVVMISCNRHTLADNFNPVSEERGKVQDCFYLFEMDSSLACSPEISHLS
modifications: bait human Fc-tagged dimer
B12: ADP119 (protein)
chain: MDVCVRLALWLLWGLLLHQGQSLSHSHSEKATGTSSGANSEESTAAEFCRIDKPLCHSEDEKLSFEAVRNIHKLMDDDANGDVDVEESDEFLREDLNYHDPTVKHSTFHGEDKLISVEDLWKAWKSSEVYNWTVDEVVQWLITYVELPQYEETFRKLQLSGHAMPRLAVTNTTMTGTVLKMTDRSHRQKLQLKALDTVLFGPPLLTRHNHLKD
modifications: bait human Fc-tagged dimer
B13: ADP357 (protein)
chain: MGPPSAPPCRLHVPWKEVLLTASLLTFWNPPTTAKLTIESTPFNVAEGKEVLLLAHNLPQNRIGYSWYKGERVDGNSLIVGYVIGTQQATPGPAYSGRETIYPNASLLIQNVTQNDTGFYTLQVIKSDLVNEEATGQFHVYPELPKPSISSNNSNPVEDKDAVAFTCEPEVQNTTYLWWVNGQSLPVSPRLQLSNGNMTLTLLSVKRNDAGSYECEIQNPASANRSDPVTLNVLYGPDGPTISPSKANYRPGENLNLSCHAASNPPAQYSWFINGTFQQSTQELFIPNITVNNSGSYMCQAHNSATGLNRTTVTMITVSGSAP
modifications: bait human Fc-tagged dimer

Biological target: Circumsporozoite protein (CSP) (Plasmodium falciparum (isolate 3D7), UniProt Q7K740)
Sequence (Q7K740 19-374): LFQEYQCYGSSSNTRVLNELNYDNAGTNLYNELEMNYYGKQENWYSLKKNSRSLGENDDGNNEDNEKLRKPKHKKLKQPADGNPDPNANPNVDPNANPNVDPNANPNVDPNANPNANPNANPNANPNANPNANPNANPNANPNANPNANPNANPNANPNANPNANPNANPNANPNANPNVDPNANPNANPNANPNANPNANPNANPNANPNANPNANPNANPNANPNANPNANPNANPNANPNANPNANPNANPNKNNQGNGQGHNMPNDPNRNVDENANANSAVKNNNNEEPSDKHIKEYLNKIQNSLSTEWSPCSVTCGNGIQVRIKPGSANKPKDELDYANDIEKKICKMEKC
Assay: AVEXIS screen signal:noise (double-corrected)

Which binding score does the source give for B1 here?
The binding score was 0.803.

How did the binding score turn out when B2 was run?
Its binding score is 1.91.

How did the binding score turn out when B3 was run?
Its binding score is 0.935.

B4 was tested. Which binding score did it give?
Its binding score is 0.76.

B5 was tested. Which binding score did it give?
The binding score was 0.666.

B6 was tested. Which binding score did it give?
Its binding score is 1.57.

For B7, which binding score is on record?
Its binding score is 1.

For B8, which binding score is on record?
The binding score was 0.642.

With B9 as the binder, how does the binding score read?
The binding score was 0.739.

How did the binding score turn out when B10 was run?
Its binding score is 0.985.

How did the binding score turn out when B11 was run?
Its binding score is 1.25.

With B12 as the binder, how does the binding score read?
Its binding score is 1.89.

How did the binding score turn out when B13 was run?
Its binding score is 0.755.
